Measured values taken from patent US20250188188A1.

Tests used:
[1] = biological target: active human C1s purified from human serum (CompTech, Tyler, TX, catalog number A104) (human) (UniProt P09871); assay: SPR
[2] = biological target: recombinant human ProC1s with Arg437 mutated to glutamine (hProC1s_RQ), C-terminal spacer and 10 histidines (human); assay: SPR
Sequence of recombinant human ProC1s with Arg437 mutated to glutamine (hProC1s_RQ), C-terminal spacer and 10 histidines (human) (chain, as listed by the source limits assumed, change not shown, form in doubt): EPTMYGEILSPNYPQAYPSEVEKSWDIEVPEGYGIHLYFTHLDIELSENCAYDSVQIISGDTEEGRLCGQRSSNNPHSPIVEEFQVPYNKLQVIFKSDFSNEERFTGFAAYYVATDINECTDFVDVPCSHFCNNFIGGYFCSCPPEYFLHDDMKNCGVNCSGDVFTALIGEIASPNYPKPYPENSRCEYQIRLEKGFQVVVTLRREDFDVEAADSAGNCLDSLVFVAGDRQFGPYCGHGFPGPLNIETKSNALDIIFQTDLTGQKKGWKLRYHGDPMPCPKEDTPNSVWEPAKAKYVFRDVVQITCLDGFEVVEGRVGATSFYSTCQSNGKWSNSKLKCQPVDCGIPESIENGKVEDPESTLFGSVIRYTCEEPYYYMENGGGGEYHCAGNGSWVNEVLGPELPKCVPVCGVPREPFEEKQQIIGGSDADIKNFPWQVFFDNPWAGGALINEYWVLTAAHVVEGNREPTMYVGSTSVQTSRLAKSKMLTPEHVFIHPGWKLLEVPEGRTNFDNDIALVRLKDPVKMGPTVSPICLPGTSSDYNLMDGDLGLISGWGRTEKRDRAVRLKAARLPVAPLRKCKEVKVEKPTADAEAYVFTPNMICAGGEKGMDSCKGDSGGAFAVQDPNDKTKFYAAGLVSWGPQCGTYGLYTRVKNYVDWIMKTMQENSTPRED

Sequence of active human C1s purified from human serum (CompTech, Tyler, TX, catalog number A104) (human) (P09871 16-437, chain 1 of 2): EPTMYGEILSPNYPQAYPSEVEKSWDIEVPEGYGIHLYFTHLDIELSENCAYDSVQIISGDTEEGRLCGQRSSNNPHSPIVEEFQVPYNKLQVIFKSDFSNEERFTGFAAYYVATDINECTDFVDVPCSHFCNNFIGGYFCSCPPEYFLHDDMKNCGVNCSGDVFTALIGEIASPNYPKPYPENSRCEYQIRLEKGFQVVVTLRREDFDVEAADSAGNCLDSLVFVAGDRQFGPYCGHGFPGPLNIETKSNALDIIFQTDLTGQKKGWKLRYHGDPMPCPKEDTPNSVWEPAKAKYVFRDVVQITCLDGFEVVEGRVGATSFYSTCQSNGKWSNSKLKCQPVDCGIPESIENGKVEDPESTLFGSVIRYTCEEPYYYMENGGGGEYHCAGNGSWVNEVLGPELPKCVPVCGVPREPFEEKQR
Sequence of active human C1s purified from human serum (CompTech, Tyler, TX, catalog number A104) (human) (P09871 438-688, chain 2 of 2): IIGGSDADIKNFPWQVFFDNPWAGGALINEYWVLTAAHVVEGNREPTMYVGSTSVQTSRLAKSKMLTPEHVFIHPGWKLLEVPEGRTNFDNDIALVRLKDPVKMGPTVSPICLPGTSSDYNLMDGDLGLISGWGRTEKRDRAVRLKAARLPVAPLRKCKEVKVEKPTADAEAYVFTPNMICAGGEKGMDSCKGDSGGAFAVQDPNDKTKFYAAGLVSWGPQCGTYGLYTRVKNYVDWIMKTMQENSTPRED

recombinant sutimlimab/BIVV009/TNT009 (antibody)
Kd [1]: 0.25 nM
Kd [2]: 0.4 nM
